Legend:
omega-Zif268-DBD fusion = omega-Zif268-DBD fusion (Mus musculus, UniProt P08046 SEQ:103-190); assay: one_hybrid; pIII-luciferase induction, site at -62, E. coli
[1] = biological target: ATM-L-directed TALE-omega K59E (synthetic construct, K59E); assay: one_hybrid; versus canonical ATM-L TALE; conditions: tags: N-terminal FLAG-NLS, C-terminal RNAP omega

B1: Zif268 consensus site (dsDNA)
DNA 1: GCGTGGGCG
DNA 2: CGCCCACGC
For B1, which binding signal (omega-Zif268-DBD fusion) is on record?
The binding signal was at least 10 fold.

B2: ATM left half-site on-target (dsDNA)
DNA 1: TGAATTGGGATGCTGTTT
DNA 2: AAACAGCATCCCAATTCA
Which binding signal [1] does the source give for B2 here?
The binding signal was 1.5 fold increase.

B3: ATM left half-site 5'A (dsDNA)
DNA 1: AGAATTGGGATGCTGTTT
DNA 2: AAACAGCATCCCAATTCT
modifications: [1 (T>A)]
For B3, which binding signal [1] is on record?
The binding signal was 2 fold increase.
